Results on eleven molecules are retold here after PMC7360590, “Structural basis of SALM3 dimerization and synaptic adhesion complex formation with PTPσ” (Scientific Reports, 2020).

T1: PTPσ-Fc fusion protein, B0V2N1
T1 chain: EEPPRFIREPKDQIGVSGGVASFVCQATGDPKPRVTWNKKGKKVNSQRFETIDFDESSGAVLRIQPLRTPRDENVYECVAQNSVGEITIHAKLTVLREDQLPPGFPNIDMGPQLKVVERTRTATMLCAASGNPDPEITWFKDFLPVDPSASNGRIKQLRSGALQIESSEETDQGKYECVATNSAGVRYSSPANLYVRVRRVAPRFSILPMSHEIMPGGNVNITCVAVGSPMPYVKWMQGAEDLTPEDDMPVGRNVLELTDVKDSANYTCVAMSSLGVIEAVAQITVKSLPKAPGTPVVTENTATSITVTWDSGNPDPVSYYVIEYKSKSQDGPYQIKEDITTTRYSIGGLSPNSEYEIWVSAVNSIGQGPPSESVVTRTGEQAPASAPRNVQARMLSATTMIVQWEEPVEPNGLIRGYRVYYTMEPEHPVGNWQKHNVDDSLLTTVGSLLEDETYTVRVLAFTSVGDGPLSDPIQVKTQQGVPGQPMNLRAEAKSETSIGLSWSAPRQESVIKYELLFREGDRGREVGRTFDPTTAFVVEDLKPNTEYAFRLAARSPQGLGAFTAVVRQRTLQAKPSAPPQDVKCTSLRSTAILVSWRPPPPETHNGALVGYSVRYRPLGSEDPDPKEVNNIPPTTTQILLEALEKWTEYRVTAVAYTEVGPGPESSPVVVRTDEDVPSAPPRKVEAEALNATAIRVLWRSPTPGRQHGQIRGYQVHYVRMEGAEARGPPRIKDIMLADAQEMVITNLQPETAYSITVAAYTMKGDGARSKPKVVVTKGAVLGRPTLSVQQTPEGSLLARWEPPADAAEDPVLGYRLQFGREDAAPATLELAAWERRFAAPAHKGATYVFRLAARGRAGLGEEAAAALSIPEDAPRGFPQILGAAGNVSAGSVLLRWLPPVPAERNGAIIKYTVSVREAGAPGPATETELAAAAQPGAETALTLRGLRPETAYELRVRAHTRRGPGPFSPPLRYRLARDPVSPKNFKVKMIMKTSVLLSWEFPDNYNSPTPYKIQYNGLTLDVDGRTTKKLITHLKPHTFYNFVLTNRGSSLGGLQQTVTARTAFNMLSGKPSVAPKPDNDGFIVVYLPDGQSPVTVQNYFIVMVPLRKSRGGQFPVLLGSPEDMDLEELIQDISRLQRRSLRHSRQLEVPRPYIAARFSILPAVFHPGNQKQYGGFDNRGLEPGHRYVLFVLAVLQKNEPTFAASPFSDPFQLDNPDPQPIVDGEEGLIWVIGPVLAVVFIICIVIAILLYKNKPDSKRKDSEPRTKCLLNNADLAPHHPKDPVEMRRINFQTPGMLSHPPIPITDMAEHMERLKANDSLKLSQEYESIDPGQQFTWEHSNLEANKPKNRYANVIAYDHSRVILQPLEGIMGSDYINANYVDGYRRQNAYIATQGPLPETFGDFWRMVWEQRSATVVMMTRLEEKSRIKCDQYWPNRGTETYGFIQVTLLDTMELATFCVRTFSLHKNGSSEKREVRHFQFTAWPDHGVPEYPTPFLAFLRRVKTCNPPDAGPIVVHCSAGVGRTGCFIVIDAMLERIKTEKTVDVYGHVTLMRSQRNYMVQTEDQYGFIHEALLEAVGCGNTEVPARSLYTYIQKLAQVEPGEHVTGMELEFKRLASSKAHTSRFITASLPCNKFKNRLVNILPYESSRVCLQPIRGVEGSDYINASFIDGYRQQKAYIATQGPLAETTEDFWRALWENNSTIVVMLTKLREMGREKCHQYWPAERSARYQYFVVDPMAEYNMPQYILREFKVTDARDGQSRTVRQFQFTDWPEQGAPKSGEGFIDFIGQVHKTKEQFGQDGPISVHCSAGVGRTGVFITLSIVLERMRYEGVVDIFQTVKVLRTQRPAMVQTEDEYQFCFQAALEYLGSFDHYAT

T2: mouse SALM3 LRR-Ig-Fn (residues 17–510), wild type, displayed on HEK293T cells (mouse, UniProt Q80XU8 17-510)
T2 construct: SALM3 (LRFN4), mouse, extracellular LRR-Ig-Fn, residues 17-510; also called WT SALM3; SALM3-pDisplay; source: HEK293T, transfected (pDisplay), on the cell surface; not shown: HA, N-terminal, kept; transmembrane domain (from the vector pDisplay), C-terminal, kept
T2 sequence (looked up): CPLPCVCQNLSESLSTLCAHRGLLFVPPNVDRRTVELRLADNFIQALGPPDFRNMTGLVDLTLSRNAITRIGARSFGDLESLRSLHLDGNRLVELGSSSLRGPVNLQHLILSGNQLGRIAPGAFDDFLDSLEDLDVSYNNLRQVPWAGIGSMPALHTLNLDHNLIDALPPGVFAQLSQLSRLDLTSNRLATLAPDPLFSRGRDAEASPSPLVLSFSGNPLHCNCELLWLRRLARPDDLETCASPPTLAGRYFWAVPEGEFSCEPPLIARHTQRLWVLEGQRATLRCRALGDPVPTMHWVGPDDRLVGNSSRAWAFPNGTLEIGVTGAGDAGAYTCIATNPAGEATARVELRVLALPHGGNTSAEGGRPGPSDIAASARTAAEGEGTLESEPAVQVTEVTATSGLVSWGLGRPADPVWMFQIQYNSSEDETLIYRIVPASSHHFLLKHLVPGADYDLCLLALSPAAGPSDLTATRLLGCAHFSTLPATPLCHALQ

B1: mouse PTPσ Ig1-3-meB+ (residues 33–331) (domain or fragment, UniProt B0V2N1 33-331, looked up)
chain: PRFIREPKDQIGVSGGVASFVCQATGDPKPRVTWNKKGKKVNSQRFETIDFDESSGAVLRIQPLRTPRDENVYECVAQNSVGEITIHAKLTVLREDQLPPGFPNIDMGPQLKVVERTRTATMLCAASGNPDPEITWFKDFLPVDPSASNGRIKQLRSGALQIESSEETDQGKYECVATNSAGVRYSSPANLYVRVRRVAPRFSILPMSHEIMPGGNVNITCVAVGSPMPYVKWMQGAEDLTPEDDMPVGRNVLELTDVKDSANYTCVAMSSLGVIEAVAQITVKSLPKAPGTPVVTENT
notes: Receptor protein tyrosine phosphatase sigma (PTPσ), mouse, Ig1-Ig3 domains, splice form with mini-exon B (meB+), residues 33-331; The meB+ splice form is meant; also called PTPσ_(Ig1-Ig3); PTPσ Ig1-Ig3; source: purified
B2: Mouse SALM3 LRR (residues 17–284) (domain or fragment, UniProt Q80XU8 17-284, looked up)
chain: CPLPCVCQNLSESLSTLCAHRGLLFVPPNVDRRTVELRLADNFIQALGPPDFRNMTGLVDLTLSRNAITRIGARSFGDLESLRSLHLDGNRLVELGSSSLRGPVNLQHLILSGNQLGRIAPGAFDDFLDSLEDLDVSYNNLRQVPWAGIGSMPALHTLNLDHNLIDALPPGVFAQLSQLSRLDLTSNRLATLAPDPLFSRGRDAEASPSPLVLSFSGNPLHCNCELLWLRRLARPDDLETCASPPTLAGRYFWAVPEGEFSCEPPLIA
modifications: N-glycan at Asn25 (partly visible in one monomer)
notes: SALM3 (LRFN4), mouse, LRR domain, residues 17-284; residues of the Prescission site may remain at the C-terminus after cleavage; also called SALM3 LRR domain; SALM3 LRR construct; not shown: Fc, C-terminal, cleaved
B3: SALM3 LRR-Ig (residues 17–367) (domain or fragment, mouse, UniProt Q80XU8 17-367, looked up)
chain: CPLPCVCQNLSESLSTLCAHRGLLFVPPNVDRRTVELRLADNFIQALGPPDFRNMTGLVDLTLSRNAITRIGARSFGDLESLRSLHLDGNRLVELGSSSLRGPVNLQHLILSGNQLGRIAPGAFDDFLDSLEDLDVSYNNLRQVPWAGIGSMPALHTLNLDHNLIDALPPGVFAQLSQLSRLDLTSNRLATLAPDPLFSRGRDAEASPSPLVLSFSGNPLHCNCELLWLRRLARPDDLETCASPPTLAGRYFWAVPEGEFSCEPPLIARHTQRLWVLEGQRATLRCRALGDPVPTMHWVGPDDRLVGNSSRAWAFPNGTLEIGVTGAGDAGAYTCIATNPAGEATARVELR
notes: SALM3 (LRFN4), mouse, LRR and Ig domains, residues 17-367; also called SALM3 LRR-Ig construct; source: purified
B4: mouse SALM3 LRR-Ig-Fn (residues 17–510), wild type, displayed on HEK293T cells, Q80XU8 L282R; R285A (protein)
chain: T2 sequence (looked up) with L266R, R269A
B5: mouse SALM3 LRR-Ig-Fn (residues 17–510), wild type, displayed on HEK293T cells, Q80XU8 L321A; H313A (protein)
chain: T2 sequence (looked up) with H297A, L305A
B6: mouse SALM3 LRR-Ig-Fn (residues 17–510), wild type, displayed on HEK293T cells, Q80XU8 R285A; L305A (protein)
chain: T2 sequence (looked up) with R269A, L289A
B7: mouse SALM3 LRR-Ig-Fn (residues 17–510), wild type, displayed on HEK293T cells, Q80XU8 R247A (protein)
chain: T2 sequence (looked up) with R231A
B8: mouse SALM3 LRR-Ig-Fn (residues 17–510), wild type, displayed on HEK293T cells, Q80XU8 R107S; Q131A (protein)
chain: T2 sequence (looked up) with R91S, Q115A
B9: PTPσ-Fc fusion protein (Fc fusion)
chain: PRFIREPKDQIGVSGGVASFVCQATGDPKPRVTWNKKGKKVNSQRFETIDFDESSGAVLRIQPLRTPRDENVYECVAQNSVGEITIHAKLTVLREDQLPPGFPNIDMGPQLKVVERTRTATMLCAASGNPDPEITWFKDFLPVDPSASNGRIKQLRSGALQIESSEETDQGKYECVATNSAGVRYSSPANLYVRVRRVAPRFSILPMSHEIMPGGNVNITCVAVGSPMPYVKWMQGAEDLTPEDDMPVGRNVLELTDVKDSANYTCVAMSSLGVIEAVAQITVKSLPKAPGTPVV

Data set [1] has as its target purified SALM3 Thr354Arg-Glu359Ala mutant protein (mouse). The data set can be described thus: not stated; oligomeric state in solution of purified SALM3 double mutants against the wild type (Supplementary Fig. S8).
Data set [2] deals with purified SALM3 Leu282Arg-Arg285Ala mutant protein (mouse). Described as above.
In data set [3] the target is B3. The data set is described as follows: SEC-SAXS; SALM3 LRR-Ig (60 µM) and PTPσ (80 µM) mixed, 1 h at 4 °C; Superdex 200 PC 3.2/30, 30 mM Tris HCl pH 7.5, 150 mM NaCl, 4 °C; rigid body (CORAL) and ab initio (DAMMIN) modelling. The settings on record: both partners purified. On the technique in general: SEC sorts molecules by how far they enter the pores of the column.

Data set [4] deals with the molecule itself. The data set is described as follows: SEC-MALS; SEC–MALLS; Superdex 75 10/300, 0.5 ml/min, 20 mM Tris pH 7.4, 150 mM NaCl; 100 µL injected at 1.5 mg/ml (conditions told for the LRR construct).
The target of data set [5] is T1, PTPσ-Fc fusion protein, B0V2N1. The data set can be described thus: in-cell western cell binding assay. The settings on record: chain shown with the change; 150 nM PTPσ-Fc; SALM3 expressed on the surface of HEK293T cells; parent: est. 49000; read off a plot.
Data set [6] concerns the target T2, mouse SALM3 LRR-Ig-Fn (residues …). The data set is described as follows: in-cell Western (cell-based binding assay); apparent; concentration series of soluble PTPσ-Fc (1–250 nM) on SALM3-transfected HEK293T cells in 96-well plates, EGB buffer with 1% BSA, overnight at 4 °C; detected with anti-human IgG IRDye 800CW. Conditions: one partner purified.

Changes are numbered by the printed parent chain. Names and notes keep the numbering of the source.

As usually defined, the stoichiometry N is a count of units in the complex or per binding partner. With “purified SALM3 Thr354Arg-Glu359Ala mutant protein (domain or fragment)”, in data set [1], the stoichiometry N is 2. “purified SALM3 Leu282Arg-Arg285Ala mutant protein (domain or fragment)” showed a stoichiometry N in data set [2] of 2. Turning to B1, the “stoichiometry N” value in data set [3] was 1 PTPσ per SALM3 (2:2 complex).

Regarding B2, the “stoichiometry N” value in data set [4] was found to be 2.

In the case of B3, the “stoichiometry N” value in data set [4] worked out at 2. Take B4: the response in data set [5] came to 2500. Still for that read-out and setting: to B5 belongs 2800. Turning to B6, the response in data set [5] was determined as 4000. On the same count and under the same terms, to B7 belongs 2500; to B8, 2800. On to B9, for which the Kd in data set [6] stood at 22.3 ± 5 nM.
